Consider 2 molecules from publication PMC5752578 (Structure (London, England : 1993), 2017).

Data set [1] has as its target T1, Grp1 63-399 E161A part of the Grp1 63-399 E161A Arf6 Q67L fusion (mouse, UniProt O08967 63-399, E161A).
T1 sequence (looked up): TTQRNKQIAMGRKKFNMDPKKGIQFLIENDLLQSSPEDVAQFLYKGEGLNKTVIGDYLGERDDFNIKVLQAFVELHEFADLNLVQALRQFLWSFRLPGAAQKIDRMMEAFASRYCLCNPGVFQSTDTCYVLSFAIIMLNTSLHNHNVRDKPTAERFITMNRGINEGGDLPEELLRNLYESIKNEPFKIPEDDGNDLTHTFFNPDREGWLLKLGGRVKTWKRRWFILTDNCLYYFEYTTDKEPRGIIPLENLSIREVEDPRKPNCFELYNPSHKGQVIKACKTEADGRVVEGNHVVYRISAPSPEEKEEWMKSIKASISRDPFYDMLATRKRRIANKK
Nature of the data set: SEC-SAXS. For orientation: SEC sorts molecules by how far they enter the pores of the column.

The data set “SEC-SAXS” deals with the molecule itself. Nature of the data set: SEC-SAXS.

B1: Arf6 Q67L part of the Grp1-Arf6 fusion constructs, loaded with GppNHp (natural protein, human)
chain: GKVLSKIFGNKEMRILMLGLDAAGKTTILYKLKLGQSVTTIPTVGFNVETVTYKNVKFNVWDVGGLDKIRPLWRHYYTGTQGLIFVVDCADRDRIDEARQELHRIINDREMRDAIILIFANKQDLPDAMKPHEIQEKLGLTRIRDRNWYVQPSCATSGDGLYEGLTWLTSNYK
As for B1, the binding result in data set [1] was “binds”.

B2: Grp1_(63-390) (mouse Grp1, diglycine splice variant, residues 63-390; fully active, lacking the polybasic region) (domain or fragment, UniProt O08967 63-390, looked up)
chain: TTQRNKQIAMGRKKFNMDPKKGIQFLIENDLLQSSPEDVAQFLYKGEGLNKTVIGDYLGERDDFNIKVLQAFVELHEFADLNLVQALRQFLWSFRLPGEAQKIDRMMEAFASRYCLCNPGVFQSTDTCYVLSFAIIMLNTSLHNHNVRDKPTAERFITMNRGINEGGDLPEELLRNLYESIKNEPFKIPEDDGNDLTHTFFNPDREGWLLKLGGRVKTWKRRWFILTDNCLYYFEYTTDKEPRGIIPLENLSIREVEDPRKPNCFELYNPSHKGQVIKACKTEADGRVVEGNHVVYRISAPSPEEKEEWMKSIKASISRDPFYDMLAT
In general, stoichiometry N refers to the number of molecules, sites or subunits per partner or assembly. As to B2, the “stoichiometry N” value in “SEC-SAXS” was 2.
